What was measured:
Details in all cases: both partners purified
[1] = molecular target: T1, IscU-IscS complex (immobilized IscS saturated with IscU) (E. coli, UniProt P0A6B7 1-404; P0ACD4 2-128, biotin (site not stated)); assay: BLI; IscS immobilised and saturated by IscU (10 μM), titrated with IscX 0-60 μM; apparent Kd, 1:1 model
T1 construct: IscS, cysteine desulfurase of E. coli; as the chain of m7; IscU of E. coli; as the chain of m4; also called IscS saturated by IscU; source: formed on the biosensor from purified E. coli-made proteins: immobilized IscS saturated by IscU (10 μM); copies: 2 +

[2] = molecular target: T2, cysteine desulfurase IscS (E. coli, UniProt P0A6B7 1-404); assay: BLI; competition: biotinylated CyaY immobilised on streptavidin biosensors, exposed to 10 μM IscS at IscX 0-60 μM; 20 mM HEPES pH 7.5, 150 mM NaCl, 2 mM TCEP, 0.5 mg/mL BSA, 25°C; apparent Kd from the response reduction, 1:1 model
T2 construct: IscS, cysteine desulfurase of E. coli; Dimer by native MS (observed 91,035 Da, predicted 91,037 Da); An adduct of about +304 Da is put down to beta-mercaptoethanol hetero-disulfides; also called wild-type IscS; source: E. coli BL21(DE3), purified (Ni-NTA, TEV cleavage, gel filtration)

[3] = molecular target: T2, cysteine desulfurase IscS; assay: native MS; ESI-MS under non-denaturing conditions; IscS 3 μM in 250 mM ammonium acetate pH 8, IscX at 0-16 IscX/IscS molar ratios, 5 min at room temperature; sequential binding model (DynaFit)
biotinylated IscS = molecular target: T3, biotinylated IscS (E. coli, UniProt P0A6B7 1-404, biotin (site not stated)); assay: BLI; biotinylated IscS immobilised on streptavidin biosensors, IscX 0-50 μM; 20 mM HEPES pH 7.5, 150 mM NaCl, 2 mM TCEP, 0.5 mg/mL BSA, 25°C; apparent Kd, 1:1 model; data not shown
T3 construct: IscS, cysteine desulfurase of E. coli; Same protein as m1, biotinylated to hold it on streptavidin biosensors; also called immobilized IscS; source: E. coli BL21(DE3), purified (Ni-NTA, TEV cleavage, gel filtration), biotinylated

Binder	Kd [1]	Kd [2]	Kd of the first two IscX per IscS dimer (primary site) [3]	Kd of the third and fourth IscX per IscS dimer (secondary site) [3]	stoichiometry N [3]	Kd (biotinylated IscS)	binding result [2]
IscX (natural protein, E. coli, UniProt P0C0L9 1-66, looked up, also: mixed disulfide with β-mercaptoethanol on majority of protein, most likely, IscX (YfhJ) of E. coli; Predicted mass 7859 Da, observed 7935 Da; the predicted mass may include some; also called YfhJ; source: E. coli BL21(DE3), purified (Ni-NTA, TEV cleavage, gel filtration)) MGLKWTDSREIGEALYDAYPDLDPKTVRFTDMHQWICDLEDFDDDPQASNEKILEAILLVWLDEAE	8 ± 2 µM	6 ± 2 µM	13.7 ± 0.4 µM	170 ± 10 µM	≤ 4 IscX per IscS dimer	8 ± 3 µM	–
biotinylated CyaY (natural protein, E. coli, UniProt P27838 1-106, looked up, biotin (site not stated), CyaY, frataxin ortholog of E. coli; Same protein as m3, biotinylated to hold it on streptavidin biosensors; also called immobilized CyaY; source: E. coli BL21(DE3), purified (Ni-NTA, TEV cleavage, gel filtration), biotinylated) MNDSEFHRLADQLWLTIEERLDDWDGDSDIDCEINGGVLTITFENGSKIIINRQEPLHQVWLATKQGGYHFDLKGDEWICDRSGETFWDLLEQAATQQAGETVSFR	–	–	–	–	–	–	binds

Source: PMC5801593 (Frontiers in Molecular Biosciences, 2017)
